In PMC11875817:

Tests used:
[1] = biological target: Escherichia coli MG1655 thioredoxin reductase TrxB (Escherichia coli MG1655) (UniProt P0A9P4)
[2] = biological target: Bacillus subtilis 168 thioredoxin reductase TrxB (Bacillus subtilis 168) (UniProt P80880)
Chain of UniProt P80880 (P80880 whole entry): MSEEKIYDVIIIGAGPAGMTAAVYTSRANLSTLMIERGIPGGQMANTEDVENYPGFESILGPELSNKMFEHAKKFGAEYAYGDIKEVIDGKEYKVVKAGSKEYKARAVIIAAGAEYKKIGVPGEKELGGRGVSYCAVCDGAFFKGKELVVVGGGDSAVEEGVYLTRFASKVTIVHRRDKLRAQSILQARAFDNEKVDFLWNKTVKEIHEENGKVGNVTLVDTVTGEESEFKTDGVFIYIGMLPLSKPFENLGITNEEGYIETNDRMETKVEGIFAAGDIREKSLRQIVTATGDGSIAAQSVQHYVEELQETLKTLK

Chain of UniProt P0A9P4 (P0A9P4 whole entry): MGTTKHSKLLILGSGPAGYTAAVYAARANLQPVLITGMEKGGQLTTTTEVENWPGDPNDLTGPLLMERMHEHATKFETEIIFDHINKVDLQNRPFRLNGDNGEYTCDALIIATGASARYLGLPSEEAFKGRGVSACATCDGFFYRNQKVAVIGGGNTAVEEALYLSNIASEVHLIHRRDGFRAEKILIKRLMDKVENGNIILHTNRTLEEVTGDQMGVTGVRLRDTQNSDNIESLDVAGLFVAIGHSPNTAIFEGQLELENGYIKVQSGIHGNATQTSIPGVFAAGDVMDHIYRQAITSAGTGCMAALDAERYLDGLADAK

Km of TrxB for its substrate TrxA; DTNB reduction assay (TNB release, A412), 50 nM ecTrxB, 0 to 6 μM ecTrxA, NADPH, no auranofin [1] [µM] | Km of TrxB for its substrate TrxA; DTNB reduction assay (TNB release, A412), 50 nM bsTrxB, 0 to 6 μM bsTrxA, NADPH, no auranofin [2] [µM] | Molecule
1.35 | – | Escherichia coli K-12 MG1655 thioredoxin TrxA (from UniProt P0AA25 1-109) (natural protein)
– | 1.72 | Bacillus subtilis 168 thioredoxin TrxA (natural protein) MAIVKATDQSFSAETSEGVVLADFWAPWCGPCKMIAPVLEELDQEMGDKLKIVKIDVDENQETAGKYGVMSIPTLLVLKDGEVVETSVGFKPKEALQELVNKHL
